Experimental data from publication PMC9489729 (2022).

Tests used:
[1] = target: T1, C-terminally His-tagged RavA (E. coli, UniProt P31473 1-498); test: BLI; + ADP, pH 7.5
[2] = target: T1, C-terminally His-tagged RavA; test: BLI; no nucleotide, pH 7.5
[3] = target: T1, C-terminally His-tagged RavA; test: BLI; + ATP, KD1 (2:1 heterogeneous ligand model), pH 7.5
[4] = target: T1, C-terminally His-tagged RavA; test: BLI; + ATP, KD2 second site (2:1 heterogeneous ligand model), pH 7.5

T1 sequence (P31473 whole entry): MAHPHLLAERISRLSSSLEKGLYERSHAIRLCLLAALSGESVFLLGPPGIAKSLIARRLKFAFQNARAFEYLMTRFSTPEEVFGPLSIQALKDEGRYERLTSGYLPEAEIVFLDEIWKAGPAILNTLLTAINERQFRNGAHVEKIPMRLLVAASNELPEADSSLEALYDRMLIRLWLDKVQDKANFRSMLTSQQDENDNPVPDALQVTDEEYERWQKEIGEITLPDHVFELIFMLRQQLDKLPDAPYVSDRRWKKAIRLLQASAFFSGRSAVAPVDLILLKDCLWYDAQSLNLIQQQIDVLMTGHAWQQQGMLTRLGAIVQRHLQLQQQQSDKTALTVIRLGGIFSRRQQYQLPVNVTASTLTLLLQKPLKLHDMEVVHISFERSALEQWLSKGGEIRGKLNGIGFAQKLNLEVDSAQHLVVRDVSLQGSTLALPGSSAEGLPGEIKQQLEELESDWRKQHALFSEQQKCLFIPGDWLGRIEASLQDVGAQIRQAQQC

B1: His-NTV-AviTag (domain or fragment)
chain: MLTLDTLNVMLAVSEEGLIEEMIIALLASPQLAVFFEKFPRLKAAITDDVPRWREALRSRLKDARVPPELTEEVMCYQQSQLLSTPQFIVQLPQILDLLHRLNSPWAEQARQLVDANSTITSALHTLFLQRWRLSLIVQATTLNQQLLEEEREQLLSEVQERMTLSGQLEPILADNNTAAGRLWDMSAGQLKRGDYQLIVKYGEFLNEQPELKRLAEQLGRSREAKSIPRNDAQMETFRTMVREPATVPEQVDGLQQSDDILRLLPPELATLGITELEYEFYRRLVEKQLLTYRLHGESWREKVIERPVVHKDYDEQPR
modifications: biotinylated for the BLI binding studies (50 μM D-biotin added to the LB medium during expression)
Kd [1]: 12.4 µM
Kd [2]: 33.3 µM
Kd [3]: 13.1 µM
Kd [4]: 4.8 µM
